Here are results for 2 molecules from publication PMC3099712 (The Journal of Biological Chemistry, 2011).

The target in series [1] is T1, mouse IGFLR1-Fc (extracellular domain of mouse IGFLR1 fused to human IgG1 Fc) (mouse, UniProt Q3U4N7 21-158).
T1 sequence (looked up): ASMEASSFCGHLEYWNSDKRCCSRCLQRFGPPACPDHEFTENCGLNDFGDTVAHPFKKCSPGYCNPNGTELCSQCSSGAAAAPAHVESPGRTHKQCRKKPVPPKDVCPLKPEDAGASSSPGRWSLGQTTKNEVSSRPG
In words: SPR. (In general: Surface plasmon resonance follows binding to a sensor surface in real time, without labels.)

Series [2] concerns the molecule itself. The series is described as follows: SDS-PAGE under reducing and non-reducing conditions.

B1: FLAG-mIGFL (mouse insulin growth factor-like protein) (ligand)
chain: ARKISTFSGPGSWPCNPKCDGRTYNPSEECCVHDTILPFKRINLCGPSCTYRPCFELCCPESYSPKKKFIVKLKVHGERSHCSSSPISRNCKSNKIFHGEDIEDNQLSLRKKSGDQP
What is called Kd is the concentration at which binding is half-saturated. High values mean weaker binding, low ones tighter binding. A word on the koff: it is a measure of how fast the partners let go of each other. Lower therefore signals slow dissociation. By kon is commonly meant the second-order rate constant of association. A low value points to slow association. As for B1, in series [1], the Kd was 0.15 nM, the koff is 0.000157 s⁻¹ and the kon was 1.02e+06 M⁻¹ s⁻¹. In series [2], the binding result was “binds”.

B2: FLAG-IGFL1 (human insulin growth factor-like family member 1) (ligand)
chain: GAPVAPMTPYLMLCQPHKRCGDKFYDPLQHCCYDDAVVPLARTQTCGNCTFRVCFEQCCPWTFMVKLINQNCDSARTSDDRLCRSVS
On to B2, for which, in series [2], the binding result is listed as “binds”.
